The text below walks through data of patent US20250250334A1 (MEDICOVESTOR, published 2025).

Assay [1] concerns the target T1, human FRalpha expressed on cells (transfected HEK293 cells; SKOV3 human ovarian cancer cells) (human, UniProt P15328 25-234).
T1 construct: whole, on cells; also called human folate receptor alpha
As to the kind of experiment: flow cytometry, SKOV3 human ovarian cancer cells that express FRalpha. As for the experimental part: (§1) The affinity of each antibody was then assessed by flow cytometry. Briefly, HEK293 cells transfected to express FRalpha were washed with fluorescence-activated cell sorting (FACS) buffer, to which the IgGs were added at varying concentrations and incubated at 4 degrees Celsius for 60 minutes. The cells were then centrifuged and washed twice in FACS buffer. A phycoerythrin-labelled anti-human IgG, Fcgamma antibody (109-115-098; Jackson ImmunoResearch, Pennsylvania, United States) was then added to the cells at a 1:200 dilution and incubated at 4 degrees Celsius for 30 minutes. The cells were then washed, resuspended in FACS buffer, and counted by flow cytometry. Results are depicted in FIG. 4.
The flow cytometry experiment of the preceding paragraph was repeated with a human ovarian cancer cell line that expresses FRalpha, SKOV3. Results are depicted in FIGS. 5A and 5B. […] The antibody according to SEQ ID NO: 3-12 was then designated the lead antibody for further development.
On the technique in general: In flow cytometry, cells or beads pass a laser one at a time.

The target of assay [2] is T2, fusion protein containing the extracellular domain of human FRalpha and a polyhistidine tag (human, UniProt P15328 25-233).
T2 construct: extracellular domain; Coated on ELISA plates; also called human FRalpha extracellular domain; not shown: polyhistidine tag
T2 sequence (P15328 25-233 limits assumed): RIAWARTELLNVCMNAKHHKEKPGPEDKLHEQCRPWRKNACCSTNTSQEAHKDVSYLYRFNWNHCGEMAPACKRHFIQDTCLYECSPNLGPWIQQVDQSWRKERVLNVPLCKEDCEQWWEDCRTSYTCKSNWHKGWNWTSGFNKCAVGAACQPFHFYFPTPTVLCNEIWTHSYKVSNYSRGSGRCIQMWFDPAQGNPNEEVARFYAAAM
As to the kind of experiment: ELISA, coated human FRalpha ECD-His. The method, then: (§2) The affinity of each IgG1 for FRalpha was confirmed by ELISA. Briefly, a fusion protein containing the extracellular domain of human FRalpha and a polyhistidine tag was used to coat ELISA plates, which were washed three times with phosphate-buffered saline (PBS) containing 0.1 percent polysorbate 20 (PBST), then blocked with PBS containing 5 percent powdered milk (PBSM), and then washed three more times with PBST. Wells were then incubated with antibodies at varying concentrations for 60 minutes at room temperature in 1 percent PBSM. Wells were then washed three times with PBST, after which the secondary, horseradish-peroxidase-conjugated antibody anti-human-IgG-Fc-HRP (ab97225, Abcam, United Kingdom) was added at a 1:8000 dilution in 1 percent PBSM for 50 minutes at room temperature. The wells were then washed six times with PBST, after which 3,3′, 5,5″-tetramethylbenzidine (TMB) was added. The reaction was stopped with 2 molar sulfuric acid, and the TMB diamine product was quantified at 450 nanometers in a plate reader. Results are depicted in FIG. 2.

Assay [3] deals with T3, fusion protein containing the extracellular domain of cynomolgus FRalpha and a polyhistidine tag (cynomolgus, UniProt A0A2K5U044 25-233).
T3 construct: extracellular domain; Coated on ELISA plates; also called cynomolgus FRalpha extracellular domain; not shown: polyhistidine tag
T3 sequence (A0A2K5U044 entry or part of it): as the sequence (P15328 25-233 limits assumed) above, with I2T, W4R, R37K, A146P, H171Y counted along it
The assay can be described thus: ELISA, coated cynomolgus FRalpha ECD-His. The method, then:
as §2
The ELISA of the preceding paragraph was repeated with a fusion protein containing the extracellular domain of cynomolgus FRalpha and a polyhistidine tag. Results are depicted in FIG. 3.
A general note: An ELISA detects its analyte on a solid surface through an enzyme-linked reagent.

Assay [4] deals with T1, human FRalpha expressed on cells …. The assay can be described thus: flow cytometry, HEK293 cells transfected to express FRalpha. As for the experimental part:
as §1

T1 sequence (P15328 25-234): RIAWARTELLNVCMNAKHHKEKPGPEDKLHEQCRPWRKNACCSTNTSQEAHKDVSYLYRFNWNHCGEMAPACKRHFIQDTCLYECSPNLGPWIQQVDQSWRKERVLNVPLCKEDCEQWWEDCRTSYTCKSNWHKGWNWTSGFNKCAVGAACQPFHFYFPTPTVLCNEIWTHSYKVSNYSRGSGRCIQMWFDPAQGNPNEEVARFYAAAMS

B1: lead fully-human anti-FRalpha IgG1 antibody (antibody according to SEQ ID NO: 3-12) (antibody, V domains shown)
VH: EVQLLESGGGLVKPGGSLRLSCAASGFTFSSYTMNWVRQAPGKGLEWVSSISSGGGYIYYADSVKDRFTISRDNAKNSLYLQMNSLRAEDTAVYYCAKGDTIMIISAWGQGTTVTVSS
VL: DIQLTQSPSTLSASVGDRVTITCRASQSISSWLAWHQQKPGKAPKLLIYAASSLQNGVPSRFSGSGFGTDFTLTISSLQPEDFATYYCQQASSFPLTFGGGTKVEIKR
notes: Fully human IgG1/kappa; also called lead antibody
The term EC50 denotes the concentration giving half of the maximal effect. Low values mean an effect from little substance, high ones a need for much substance. As for B1, the EC50 in assay [1] is less than 1 nM; in assay [2], roughly 0.05 nM; in assay [3] it was roughly 0.06 nM; in assay [4] it was roughly 5 nM.

B2: Mirvetuximab (antibody, V domains shown)
VH: QVQLVQSGAEVVKPGASVKISCKASGYTFTGYFMNWVKQSPGQSLEWIGRIHPYDGDTFYNQKFQGKATLTVDKSSNTAHMELLSLTSEDFAVYYCTRYDGSRAMDYWGQGTTVTVSS
VL: DIVLTQSPLSLAVSLGQPAIISCKASQSVSFAGTSLMHWYHQKPGQQPRLLIYRASNLEAGVPDRFSGSGSKTDFTLTISPVEAEDAATYYCQQSREYPYTFGGGTKLEIK
In the case of B2, the values for the EC50 in assay [2], in assay [3] and in assay [4] were roughly 0.12 nM, roughly 0.16 nM and roughly 4 nM, respectively.
